Test results published in the Human Domainome abundance scans (Beltran et al. 2025).

B1: Membrane-associated guanylate kinase, WW and PDZ domain-containing protein 2, residues 601 to 682; numbered along this chain, Q86UL8 (parent)
chain: AELMTLTIVKGAQGFGFTIADSPTGQRVKQILDIQGCPGLCEGDLIVEINQQNVQNLSHTEVVDILKDCPIGSETSLIIHRG

Variants of: B1
Test: abundance fitness (aPCA) (normalised: wild type 0, dead -1); higher = more abundant; growth selection in yeast, the domain comes from the species named
Details: Homo sapiens

Abundance fitness: each site, then its substitutions
T18: Y -0.032; E 0; G -0.068; W -0.075; C -0.044; Q -0.066; D -0.011; I 0.008; M -0.061; P -1.1; S -0.013; K 0.044; N 0.001; F -0.149; L 0.01; V -0.024; H -0.134
P23: Y -0.16; H -0.303; M -0.072; T -0.058; D -0.129; C 0.021; K 0.023; R -0.03; V -0.297; F -0.106; L -0.018; N -0.045; W -0.03; Q -0.029; E -0.022; G -0.09; I -0.17
G16: L -0.014; F -0.101; R -0.051; A -0.144; C -0.002; I -0.268; Y -0.155; Q -0.085; T -0.048; K -0.029; W -0.045; N 0.018; E -0.059; D 0.071; P -0.006; S -0.027; H -0.044; M -0.007
T24: G 0.041; Q -0.035; E 0.024; A -0.013; V -0.08; P -0.017; H 0.02; C -0.03; D -0.037; F -0.053; M -0.031; N -0.004; Y -0.021; R 0.007; W -0.076; L -0.023
V9: A -0.082; P -0.135; I -0.087; N -0.207; T -0.011; H -0.222; Q -0.071; K -0.128; S -0.102; R -0.052; F -0.044; M 0.003; E -0.088; G -0.077; C -0.12; D -0.184; L -0.139; Y -0.039; W -0.072
G25: S -0.185; T -0.318; Q -0.255; P -0.371; C -0.17; K -0.267; L -0.538; M -0.191; V -0.514; F -0.314; A -0.046; Y -0.177; R -0.356; W -0.531; N -0.162; D -0.766; E -0.127
R27: M -0.066; C -0.589; D -0.42; V 0.047; S -0.158; T 0.021; E -0.173; I 0.047; H -0.089; P -0.382; G -0.107; A -0.042; W -0.054; L -0.007
G11: D 0.01; Y -0.124; F -0.114; I -0.116; K -0.09; N 0.017; W -0.223; T -0.015; R -0.094; M -0.095; L -0.104; A 0.018; V 0.027; H -0.142; S -0.023; E -0.118; Q -0.119; P 0.03; C -0.146
A12: N -0.077; C -0.044; H -0.209; G 0.01; Y -0.119; M -0.034; Q -0.037; R -0.029; K -0.036; E -0.047; L -0.05; F -0.075; P -0.043; I -0.137; W -0.057; D -0.02; S -0.046
I8: L 0.036; A -0.021; M -0.053; R -0.397; Y -0.012; K -0.261; T 0.042; D -1.07; C -0.008; V -0.002; S -0.059; F 0.046; G -0.084
